# Assay: yeast display, Sf9 membrane polyspecificity reagent, FACS + sequencing; frameworks hold sequencing errors
# Outline: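 Polyreactivity labels are assigned by the sorting gate from which each nanobody was recovered. The gates were low and high (top ~1%), set on anti-HA fluorescence for expression and streptavidin fluorescence for reagent binding. Before sorting, galactose-induced (36–48 hours) yeast display cells were stained for 1 hour at 4 °C with 10% biotinylated, detergent-solubilized Sf9 membrane reagent.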
row,Sequence,polyreactivity (PSR sort gate)
1,QVQLVESGGGLVQAGGSLRLSCAASGRTFPYYAMGWSRQAPGKERELVAAITRGGNTNYADSVKGRFTISRDNAKNTVYLQMNSLKPEDTAVYYCAALVRAGPRRGTIYDYWGQGTQVTVSS,high polyreactivity
2,QVQLVESGGGLVQAGGSLRLSCAASGSTFFRYAMGWYRQAPGKERELVAAITTSGGNTYYADSVKGRFTISRDNAKNTVYLQMNSLKPEDTAVYYCNVLRGFPRYYYWGQGTQVTVSS,high polyreactivity
3,QVQLVESGGGLVQAGGSLRLSCAASGITFWTYAMGWYRQAPGKERELVARISKSGARTFYADSVKGRFTLSRDNAKNTVYLQMNSLKPEDTAVYYCAADFRSNYDYWGQGTQVTVSS,high polyreactivity
4,QVQLVESGGGLVQAGGSLRLSCAASGLILNYYTMGWYRQAPGKERELVATISSSTGSTYYADSVKGRFTISRDNAKNTVYLQMNSLKPEDTAVYYCAADHWSYWQIYDYWGQGTQVTVSS,low polyreactivity
5,QVQLVESGGGLVQAGGSLRLSCAASGSIFGYAMGWYRQAPGKERELVAAISFSGVSTYYADSVKGRFTISRDNAKNTVYLQMNSLKPDDTAVYYCATDRFYYRTGYDPYYYWGQGTQVTVSS,low polyreactivity
6,QVQLVESGGGLVQAGGSLRLSCAASGFIIAFDNAMGWYRQAPGKERELVAAISSGTTTHYADSVKGRFTISRDNAKNTVYLQMNSLKPEDTAVYYCAADSVKQVRYGNVGHDYWGQGTQVTVSS,low polyreactivity
7,QVQLEESGGGLVQAGGRLRLSCDASGITLLLKAMGWYRQAPGKERELFAAISEGGGSTYYADSVKGRFTISRDNAKNTVYLQMNSLTPEDTAVYYCAADEYTPDYGQGYDYWGQGTQVTVSS,low polyreactivity
8,QDQLVESGGGLVQAGGSLRLSCAASGNIIRKYAMGWYRQAAGKEREFVAAISSSGGRTYYADSVKGRFTISRDNAKNTVYLQMNSLKPEDTAVYYCAAEDWSYYDYDYWGQGTQVTVSS,high polyreactivity
9,QVQLVESGGGLVQAGGSLRLSCAASGRIFRGYAMGWYRQAPGKERELVATISAIGGSTYADSVKGRFTISRDNAKNTVYLQMNSLKPEDTAVYYCNVRKVYRYQYRFEYWGQGTQVTVSS,high polyreactivity
10,QVQLVESGGALVQAGGSLRLSCAASRITFTDNAMGWYRQAPGKERELVAAISSGASTYYADSVKGRFTISRDNAKNTVYLQMNSLKPEDSAVYYCATRQTYNYPWHYRYYYWGQGTQVTVSS,high polyreactivity
11,QVQLVESGGGLVQTGGSLRLSCAASGRILYTNAMGWYRQAPGKERELVAAISSGGRTTYADSVKGRFTISRDNAKNTVYLQMNSLKPEDTAVYYCAAGIRIYGTKRSRGYGYWGQGTQVTVSS,high polyreactivity
12,QVQILESGVGLVQPGGSLRLICAASGITLQFYALGWYRKATGKEAELVAAISISGGRTYYADSVKGRFTISRDNAKNTFYLQMNSLKPEDTAVYYCAAYLQRAYRYGYWGQGTQVTVSS,high polyreactivity
13,QVQLVVSGGGLVQAGGSLRLSCAPSGRTFKPYVMGWYRQAPGKERELVAAISSRGGSTYYADSVKGRFTISRDNEKTTVFLQMNSLKPEDTAVYYCNAAYWFSNKNGYWGQGTQVTVSS,high polyreactivity
14,QVQLVESGGGLVQAGGSLRLSCAASGSIIYFYAMGWYRPAPGKERELVAAISITSASTYYADSVKGRFTISRDNAKNTVYLQMNSLKPEDTAVYYCAAEYYYVDWIYDYWGQGTQVTVSS,high polyreactivity
15,QVQLVESGGGLDQAGGSLRLSCAASGRIFRYYAMGWYRQAPGKERELVAAISTSGDTTYYADSVKGRFTISRDNAKNTVYLQMNSLKPEDTAVYYCAADTYYYLVKYGSYDYWGQGTQVTVSS,high polyreactivity
16,QVQLVESGGGLVQAGGSLRLSCAASGSIFYNYAMGWYRQAPGKEREFVAGITRSGGTTSYADSVKGRFTISRDNAKNTVYLQMNSLKPEDTAVYYCAAVVYLQAWYGYWDYYYWGQGTQVTVSS,high polyreactivity

row,Sequence,polyreactivity (PSR sort gate)
1,QVQLVESGGGIVQAGGSLRLSCAASGLIIQNNAMVWNRQAPGKERELVAAITSDGSTYADSVKGRFTISRDNAKNTVYLQMNSLKPEDTAVYYCNADGITSLPVPALDYWGQGTQVTVSS,low polyreactivity
2,QVQLVESGGGLVQARGSLRLSCAASGSTFDPYAMGWYRQAPGINYSGASTYYADSVKGRFTISRDNAKNTVYLQMNSLKPDDTAVYYCAAEFVAQMNYWGQGTQVNVSS,low polyreactivity
3,QVQLVESGGGLVQAGGSLRLSCAASGRTCYINAMGWYRQAPGKERELVAAISSGGSTNYADSVKGRFTISRDNAKNTVYLQMNSLKPEDTAVYYCNAKYYQGTPVELDYWGQATQVTVSS,low polyreactivity
4,QLQLVESGGVLVQAGGSLRLSCAASGRTFSEYLQGCYRPPPGKERELVAASTRGGGGTYYADSVKGRFTISRDNAKNTVYFQMNSLKPEDTAVYYCAAGRRGSAGYYRQFGYGYWGQGTQVTVSS,high polyreactivity
5,QVQLVESGGGLVQAGGSLRLSCAASGRIFVRYAMGWYRQAPGKESEFVADIDGGGGRTYADSVKGRFTISRDNAKNTVYLLMNSLKPEDTAVYYCNAYVYSIHWCDLYWSEYDYWGQGTQVTVSS,high polyreactivity
6,QVQLVESGGGLVQAGGSLRLSCAASGRTFERNAMGWYRQAPGKEREFVAAITEIGGSTYYADSVKGRFTISRDNAKNTVYLQMNSLKPEDTAVYYCAKDGTYSPYDYWGQGTQVTVSS,low polyreactivity
7,QVQLVESGGGLLQAAGSLSLSCAASGSIFKYYAMGWYRQAPGKERELVAAISASGGSTSYADSVKGRFTISRDNAKNTVYLQMNSLKPEDTAVYYCAADGVSYAYRYDYWGQGTQVTVSS,low polyreactivity
8,QVQLVESGGGLVQAGGSLRLSCAASGSIFHWYAMGWYRQAPGKERELVAAISWSGGSTYYADSVKGRFTISRDNAKNTVYLQRNSLKPEDTAVYYCNKYIRYPFKRYGYWGQGTQVTVSS,high polyreactivity
9,QVQLVESGGGLVQAGGSLRLSCAASGIIFYKYAMGWYRQAPGKERELVAAINWSGGSTYYADSVKGRFTISRDNAKNTVYLQMNSLKPEDTAVYYCAADRTDFEYYYWGQGTQVTVSS,low polyreactivity
10,QVQLVESGGGLVQAGGSLRLISAASGFTFAWYTMGWYRQAPGKERELVAAITDSGDSTYYADSVKGRFTISRDNAKNTVYLQMNSLKPEDTAVYYCATRSWYWDIWITEYDYWGQGTQVTVSS,low polyreactivity
11,QVQLVESGGGLVQAGGSLRLSCAASGINFVRNAMGWYRQAPGKERELVAAITGRGVSTYYADSVKGRFTISRDNAKNTVYLQMKSLKPEDTAVYYCAARYSSRGTYPRRYDYWGQGTQVTVSS,high polyreactivity
12,QGQLVESGGGLVQAGGSLRLSCAASGFTSSRNAMGWYIQEAGKERELVATISSGGDTYYADSVKGRFTISRDNAKNTVYLQMNSLKPEDTAVYYCNKDPLYAWGYDYWGQGTQVTVSS,low polyreactivity
13,QVQLVESGGGLVQAGGSLRLSCADSGYTFSPNAMGWYRQAPGKELELVAAISSAVSTDYADSVKGRFTISRDNAKNTVYLQMNSLKPEDTAVYYCAADDQYRVTLGYDYWGQGTQVTVSS,low polyreactivity
14,QVQLLESGGGLVQAGGSLRLSCAASGSIFANNAMGWYRQSPGKEREMVAAIDWSAASTYYADSVKGRFTISRDNAKNTVYLQMNSLKPEDTAVYYWNRRGSGGESYRTTTGALGYWGQGTQVTVSS,low polyreactivity
15,QVQLVESGGGLVQAGGSLRLSCAASGIIFGQNALGWYRQAPGKEREVVAAITISGGSTYYSDSVKGRFTISRDNAKNTVYLQMNSLKPEDTAVYYCAAEWYYVYIAPYDYWGQGTQVTVSS,low polyreactivity
16,QVQLVESGGGLVQAGGSLRLSCAASGFIFTRYAMGWYRQAPGKERELVAAITRSGGRTYYADSVKGRFTISRDNAKNTVYLQMNSLKPEDTAVYYCAAEGSVGLYGLIMHYWGLGTQVTVSS,high polyreactivity

# — the nanobody polyreactivity screen of Harvey et al. (2022)
